Reference: US8106168B2, “Metalloproteinase binding proteins” (Dyax Corp., priority 2005, dated 2012)

B1: M0033-H07: human antibody (Fab, IgG) that binds and inhibits MMP-14; HC SEQ ID NO: 148, LC SEQ ID NO: 149 (antibody, V domains shown)
VH: EVQLLESGGGLVQPGGSLRLSCAASGFTFSVYGMVWVRQAPGKGLEWVSVISSSGGSTWYADSVKGRFTISRDNSKNTLYLQMNSLRAEDTALYYCARPFSRRYGVFDYWGQGTLVTVSS
VL: QDIQMTQSPSSLSASVGDRVTITCRASQGIRNFLAWYQQKPGKVPKLLVFGASALQSGVPSRFSGSGSGTDFTLTISGLQPEDVATYYCQKYNGVPLTFGGGTKVEIK
modifications: Synthetically generated peptide
B2: M0031-F01: human antibody (Fab, IgG) that binds and inhibits MMP-14; HC SEQ ID NO: 146, LC SEQ ID NO: 147 (antibody, V domains shown)
VH: EVQLLESGGGLVQPGGSLRLSCAASGFTFSTYEMHWVRQAPGKGLEWVSSIYSSGGWTGYADSVKGRFTISRDNSKNTLYLQMNSLRAEDTAVYYCARSQQYYDFSSRYYGMDVWGQGTTVTVSS
VL: QSELTQPPSVSGTPGQRVTISCSGTSANIGRNAVHWYQQLPGTAPKLLIHSNNRRPSGVPDRFSGSKSGTSASLAISGLQSEDEADYYCAAWENSLNAFYVFGTGTKVTVL
modifications: Synthetically generated peptide
B3: M0038-F08: human antibody (Fab, IgG) that binds and inhibits MMP-14; HC SEQ ID NO: 158, LC SEQ ID NO: 159 (antibody, V domains shown)
VH: EVQLLESGGGLVQPGGSLRLSCAASGFTFSRYKMWWVRQAPGKGLEWVSGIRPSGGLTRYADSVKGRFTISRDNSKNTLYLQMNSLRAEDTAVYYCARRGDYVGGFDYWGQGTLVTVSS
VL: QDIQMTQSPGTLSLSPGERATLSCRASQSVSSSYLAWYQQKPGQAPRLLIYGASSRATGIPDRFSGSGSGTDFTLTISRLEPEDFAVYYCQHYGGSQAFGGGTKVEIK
modifications: Synthetically generated peptide

Key:
[1] = molecular target: T1, MMP-14 (Homo sapiens, UniProt P50281); assay: Selection and phage ELISA screening of anti-MMP-14 Fabs; format: binding; settings: Fab from FAB310 phage display library
Outline: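 Phage ELISA screened 95 clones from each of rounds 2 and 3 against biotinylated MMP-14 (1 μg/ml) captured on streptavidin, in TRIS/CaCl2/NaCl pH 7.5. The clones came from Fab library selections on biotinylated MMP-14, either free or TIMP-2-complexed (500 nM round 1, 100 nM later rounds). Elution used 2.5 μM TIMP-2 followed by TEA.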

[2] = molecular target: T2, MMP-16 (Homo sapiens, UniProt P51512); assay: Cross-reactivity of anti-MMP-14 IgGs, enzymatic activity: MMP-16; format: biochemical; settings: 1 μM anti-MMP-14 IgG
T2 sequence (P51512 120-607): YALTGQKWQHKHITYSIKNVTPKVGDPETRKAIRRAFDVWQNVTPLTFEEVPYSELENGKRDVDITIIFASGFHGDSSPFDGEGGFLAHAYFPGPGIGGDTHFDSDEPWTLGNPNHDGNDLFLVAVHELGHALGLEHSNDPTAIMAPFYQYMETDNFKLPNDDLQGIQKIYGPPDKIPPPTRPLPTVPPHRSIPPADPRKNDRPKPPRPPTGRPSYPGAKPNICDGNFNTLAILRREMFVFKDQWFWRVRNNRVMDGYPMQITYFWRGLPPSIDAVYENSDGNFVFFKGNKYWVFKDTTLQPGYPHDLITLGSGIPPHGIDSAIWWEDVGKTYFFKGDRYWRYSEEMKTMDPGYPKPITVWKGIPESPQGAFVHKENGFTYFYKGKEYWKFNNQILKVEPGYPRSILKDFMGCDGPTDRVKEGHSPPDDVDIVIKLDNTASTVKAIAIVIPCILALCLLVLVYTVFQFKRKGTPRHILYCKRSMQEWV
Protocol: (§1) The cross-reactivity of exemplary anti-MMP-14 IgGs and Fabs with other human MMPs and TACE (TNF-alpha converting enzyme) was examined. MMP and TACE enzymatic activity was monitored in the absence and presence of 1 μM anti-MMP-14 IgG antibody. Inhibition (Y) of activity ranged from approximately 50-80% of the reaction rate observed in the absence of antibody. “X” indicates no inhibition was observed. Cross-reactivity was not determined for MMP-17 because protein activity could not be detected.
(§2) For the studies summarized in Table 12, six anti-MMP-14 IgGs were selected for cross-reactivity testings: M0043-G02, M0040-A06, M0037-D01, M037-C09, M0038-F01, M0033-H07.

[3] = molecular target: T2, MMP-16; assay: Cross-reactivity of Fabs and IgGs with MMP-16 (Example 8); format: biochemical; design: key to MMP-16 (cross-reactivity, class symbol): X: Does not inhibit MMP-16 at [I] = 100 nM level; settings: 5 nM MMP16, 30 minutes at 30° C., 10 μM substrate
Protocol: For the studies summarized in Tables 13 and 14, 100 nM anti-MMP-14 Fab/IgG were incubated with 5 nM MMP16 for 30 minutes at 30° C., 10 μM of substrate was added, and the MMP-16 activity was measured.

[4] = molecular target: T1, MMP-14; assay: IC50 for MMP-14 inhibition by Fabs and IgGs; format: biochemical; settings: Fab
Protocol: MMP-14 binding proteins can be characterized in assays that measure their modulatory activity toward MMP-14 or fragments thereof in vitro or in vivo. For example, MMP-14 can be combined with a substrate such as Mca-Pro-Leu-Ala-Cys(Mob)-Trp-Ala-Arg-Dap(Dnp)-NH2 under assay conditions permitting cleavage by MMP-14. The assay is performed in the absence of the MMP-14 binding protein, and in the presence of increasing concentrations of the MMP-14 binding protein. The concentration of binding protein at which 50% of the MMP-14 activity (e.g., binding to the substrate) is inhibited is the IC50 value (Inhibitory Concentration 50%) or EC50 (Effective Concentration 50%) value for that binding protein.

[5] = system: activation of pro-MMP-2 by MMP-14 in PMA-activated HT-1080 cells; assay: Gelatin zymogram, pro-MMP-2 activation in HT-1080 cells; format: cell-based, human; settings: gelatin zymography of conditioned media after 3 days; antibodies 10 μg/ml, GM6001 10 μM
Protocol: The ability of anti-MMP-14 IgGs to inhibit the activation of pro-MMP-2 by MMP-14 was examined by gelatin zymogram experiments performed with PMA-activated HT-1080 cells. M0033-H07 and M0038-F01 were tested for their ability to inhibit MMP-14 in this assay. HT1080 cells (well-known to express MMP-14 and MMP-2) were seeded at 5×10^5 cells/well at Day 0. […] HT-1080 cells cultured in the presence of 20 ng/ml of PMA were used as a positive control.
After 3 days of incubation, conditioned media were collected and gelatinolytic activities were analyzed by gelatin zymography as described previously (Maquoi et al, J Biol Chem 2000; 275:11368-78). When HT-1080 cells are activated with a phorbol ester, pro-MMP-2 is activated into MMP-2 (lane 1).

[6] = molecular target: T3, MMP-24 (Homo sapiens, UniProt Q9Y5R2); assay: Cross-reactivity of Fabs with MMP-24 (Example 9); format: biochemical; design: key to MMP-24 (cross-reactivity, class symbol): X: Do not inhibit MMP-16 or MMP-24 at [I] = 100 nM level; Y: partially inhibit at [I] = 100 nM level; settings: Fab, 100 nM final inhibitor concentration; 5 nM MMP-24
T3 sequence (Q9Y5R2 156-645): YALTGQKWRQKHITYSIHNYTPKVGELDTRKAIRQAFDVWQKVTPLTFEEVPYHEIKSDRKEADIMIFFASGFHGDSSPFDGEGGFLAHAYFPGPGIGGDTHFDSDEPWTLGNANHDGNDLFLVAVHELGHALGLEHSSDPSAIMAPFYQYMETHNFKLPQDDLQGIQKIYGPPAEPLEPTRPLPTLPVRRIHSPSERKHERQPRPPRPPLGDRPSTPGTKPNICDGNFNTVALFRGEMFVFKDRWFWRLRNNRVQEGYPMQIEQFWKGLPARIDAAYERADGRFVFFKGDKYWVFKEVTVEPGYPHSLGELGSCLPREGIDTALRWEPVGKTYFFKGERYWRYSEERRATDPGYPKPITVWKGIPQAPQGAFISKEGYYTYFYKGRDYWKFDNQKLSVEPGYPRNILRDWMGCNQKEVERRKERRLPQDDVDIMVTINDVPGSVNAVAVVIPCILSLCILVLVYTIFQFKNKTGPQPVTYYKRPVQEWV
Protocol: (§3) For the studies summarized in Table 15, 1 μM of anti-MMP-14 Fab/IgG (100 nM final inhibitor concentration) were incubated with 5 nM of MMP-16 or 5 nM of MMP-24 for 30 minutes at 30° C., 10 μM of substrate was added, and the MMP-16 activity was measured.

[7] = molecular target: T3, MMP-24; assay: Cross-reactivity of anti-MMP-14 IgGs, enzymatic activity: MMP-24; format: biochemical; settings: 1 μM anti-MMP-14 IgG
Protocol: as §1, §2

[8] = molecular target: T2, MMP-16; assay: Cross-reactivity of Fabs with MMP-16 (Example 9); format: biochemical; design: key: X: Do not inhibit MMP-16 or MMP-24 at [I] = 100 nM level; Y: partially inhibit at [I] = 100 nM level; settings: Fab, 100 nM final inhibitor concentration, 5 nM MMP-16
Protocol: as §3

[9] = system: Tumor Cells Expressing MMP-14 (HT-1080, LNCaP, MDA-MB-231, PC3); assay: Binding of IgGs to tumor cells, immunocytochemistry and flow cytometry; format: cell-based, human; settings: ICC versus flow cytometry
Protocol: The ability of twelve biotinylated-MMP-14 binding IgGs to bind to tumor cells expressing MMP-14 was evaluated using both immunocytochemistry (ICC) and flow cytometry. The cell lines tested were HT-1080 (a human fibrosarcoma cell line), LNCaP (human, prostate, carcinoma), MDA-MB-231 (human, breast, adenocarcinoma), or PC3 (Human prostatic cancer cells) cells. MMP-14 is expressed on HT-1080 cells (Cancer Res. (2005) 65(23):10959-69.). MMP-14 is expressed on PC-3 cells (Oncol Rep. (2006) 15(1):199-206). LNCaP express MMP-14 (Endocrinology (2003) 144(5):1656-1663) at a relatively low level. […] MMP-14 is expressed by MDA-MB-231 cells (Int J Cancer. (2005) 114(4):544-554.).
Cells (2×10^5) were cultivated on cell culture slides in complete medium. At confluency, cells were washed with PBS and fixed with 4% paraformaldehyde for 30 minutes at room temperature. Endogenous peroxidases were blocked with 3% hydrogen peroxide for 20 minutes. Nonspecific binding sites were blocked by incubation with 10% heat inactivated human serum 10% normal rabbit serum for 30 minutes at room temperature. Cells were then incubated with biotinylated or non-biotinylated MMP-14 binding proteins at 10 μg/ml for 2 hours at room temperature. […] Binding was detected with the substrate AEC+(25 minutes at room temperature in the dark). […]

Molecule | bind to human MMP-14 [1] | Cross reactivity: inhibition of MMP-16 activity [2] | MMP-16 (cross-reactivity, class symbol) ([3]; Fab 100 nM) | MMP-16 (cross-reactivity, class symbol) ([3]; IgG 100 nM) | bind to and inhibit human MMP-14 [4] | pro-MMP-2 activation by MMP-14 [5] | pro-MMP-9 expression [5] | MMP-24 (cross-reactivity, class symbol) [6] | Cross reactivity: inhibition of MMP-24 activity [7] | MMP-16 (cross-reactivity, class symbol) [8] | Staining, remark on method [9]
B1 | bind to human MMP-14 | Y (Inhibition (Y) of activity ranged from approximately 50-80% of the reaction rate observed in the absence of antibody) | X | X | bind to and inhibit human MMP-14 | partly inhibited | No stimulation | X | Y (Inhibition (Y) of activity ranged from approximately 50-80% of the reaction rate observed in the absence of antibody) | X | 
B2 | bind to human MMP-14 |  |  |  | bind to and inhibit human MMP-14 |  |  |  |  |  | (only positive in ICC)
B3 | bind to human MMP-14 |  | X | X | bind to and inhibit human MMP-14 |  |  | X |  | X | (only positive in immunocytochemistry, ICC)
